Measurements taken from paper PMC8405996, “A structurally preserved allosteric site in the MIF superfamily affects enzymatic activity and CD74 activation in D-dopachrome tautomerase” (The Journal of Biological Chemistry, 2021).
Residue numbers refer to the chain shown, from its start. Numbers in names are those of the source.

B1: D-dopachrome tautomerase (MIF-2), wild type (enzyme, human, UniProt P30046 1-118, looked up)
chain: MPFLELDTNLPANRVPAGLEKRLCAAAASILGKPADRVNVTVRPGLAMALSGSTEPCAQLSISSIGVVGTAEDNRSHSAHFFEFLTKELALGQDRILIRFFPLESWQIGKIGTVMTFL
notes: human D-dopachrome tautomerase (MIF-2), monomer of 117 amino acids with the catalytic Pro1 at the N terminus (initiating Met removed); Homotrimer; no tag is named; also called wt-MIF-2; DDT; source: E. coli BL21-Gold (DE3), purified (Q-Sepharose, Superdex 75)
B2: MIF-2 P1G variant (enzyme, human, UniProt P30046 1-118, looked up)
chain: B1 chain with P2G
notes: human D-dopachrome tautomerase (MIF-2) with P1G; the initiating Met was found kept in this variant (not cleaved in E. coli), so the chain begins Met-Gly1; also called P1G MIF-2; source: E. coli BL21-Gold (DE3), purified (Q-Sepharose, Superdex 75)

Target: the molecule itself
Experiment: crystal structure; hanging-drop vapor diffusion at 20 °C; diffraction data at 100 K; molecular replacement; trimer of MIF-2 in the crystal

Protein | stoichiometry N | binding result
B1 | 3 | 
B2 |  | binds
